This note sets out measurements from PMC314469, “Protein Interaction Networks by Proteome Peptide Scanning” (PLoS Biology, 2004).

T1: Abp1 SH3 (ABP1_YEAST), P15891
T1 chain: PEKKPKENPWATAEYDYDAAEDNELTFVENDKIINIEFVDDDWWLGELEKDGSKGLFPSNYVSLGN

T2: Myo5 SH3 (MYO5_YEAST), Q04439
T2 chain: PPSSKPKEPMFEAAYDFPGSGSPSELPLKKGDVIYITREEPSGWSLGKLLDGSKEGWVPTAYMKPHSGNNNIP

B1: YGL156W 1061-1073 (peptide)
chain: NHAINRIPIKLRP
B2: YMR089C 153-165 (peptide)
chain: NIPPPPPPPPPKP
B3: YLR356W 137-149 (peptide)
chain: NHASENTPRDGKP
B4: YBR286W 82-94 (peptide)
chain: NIPKPHIPYFMKP
B5: YHR015W 379-391 (peptide)
chain: NHTIWVGPGKDKP
B6: YDR363W 94-106 (peptide)
chain: NIEDITEPKPDKP
B7: YLL007C 14-26 (peptide)
chain: NIKVLLNPKLGKP
B8: YAL023C 524-537 (peptide)
chain: NIETHENERLPPRP
B9: YHR132C 397-409 (peptide)
chain: NHGFLLPPENIKP
B10: YNL206C 122-135 (peptide)
chain: NIKMASFLPVPEKP
B11: YJL046W 318-331 (peptide)
chain: QFSGLLEPSLPNNM
B12: YGL014W 93-106 (peptide)
chain: PPPDFNDPTAPLSS
B13: YOR197W 87-100 (peptide)
chain: PPMAYNRPVYPPPQ
B14: YOR037W 215-228 (peptide)
chain: PFIDYEFPHLPNEL
B15: YNL271C 1240-1251 (peptide)
chain: PPPPPPPPPVPA
B16: YCL029C 108-121 (peptide)
chain: QFSPMDDPKSPTPM
B17: YBR172C 147-160 (peptide)
chain: PFSSMKEPFIPQSS
B18: YLR285W 17-30 (peptide)
chain: PEDFLPPPPKPHFA
B19: YIL132C 50-63 (peptide)
chain: QFQKLVPPTLPENV
B20: YCR033W 1026-1039 (peptide)
chain: PLTTLPPPRLPSIQ
B21: YER169W 383-396 (peptide)
chain: PLNQLPNPAMPLLH
B22: YBR238C 623-636 (peptide)
chain: PEHLFNNPQNPMDF
B23: YBR212W 12-25 (peptide)
chain: QENPYIIPLPPSST
B24: YAL017W 90-103 (peptide)
chain: PPLDFEQPRLPSTA
B25: YKL129C 1112-1125 (peptide)
chain: PPPPMGQPKDPKFE
B26: YNL134C 307-320 (peptide)
chain: PFGTFTLPADPEYK
B27: YKL139W 28-41 (peptide)
chain: NPQSLARPPPPKRI
B28: YOR149C 314-327 (peptide)
chain: QELRFLVPLVPLLV
B29: YER033C 119-132 (peptide)
chain: PPPPLPPPLFPSSS
B30: YLR337C 421-434 (peptide)
chain: PLAPLPPPPPPSVA
B31: YDR171W 234-247 (peptide)
chain: PETRMDLPFSPEVN
B32: YIL137C 4-17 (peptide)
chain: NLLSLENPVVPSHY
B33: YIL005W 29-42 (peptide)
chain: PPEGFPEPLNPTNF
B34: YBR289W 73-86 (peptide)
chain: PPQTHQSPPPPPQQ
B35: YNL271C 1278-1290 (peptide)
chain: PAPPPPPPPPPPP
B36: YKR055W 169-182 (peptide)
chain: PEVKHFSPSTPIML
B37: YBR279W 23-36 (peptide)
chain: PPKLLVYPESPETN
B38: YOR260W 14-27 (peptide)
chain: NLAPFTQPDFPFQT
B39: YGL160W 297-310 (peptide)
chain: NPLYWLLPSHPYTI
B40: YLL018C 454-467 (peptide)
chain: PFYTMPDPANPKYS
B41: YLR399C 121-134 (peptide)
chain: QELPMEVPKEPAPA
B42: YHR135C 370-383 (peptide)
chain: NLHGYGHPNPPNEK
B43: YKR077W 284-297 (peptide)
chain: QASMLRRPSLPHID
B44: YIL151C 523-536 (peptide)
chain: QLIGFGNPKNPFAL
B45: YOR181W 270-283 (peptide)
chain: NPFPFPIPEIPSTQ
B46: YLR337C 659-672 (peptide)
chain: PLPTFSAPSLPQQS
B47: YLR229C 99-112 (peptide)
chain: PEVHHHSPGVPSLV
B48: YGR083C 349-362 (peptide)
chain: QEISLIDPSTPDKA
B49: YBL035C 102-115 (peptide)
chain: PLFGLSIPKTPTLK
B50: YNL288W 26-39 (peptide)
chain: NPGSMSMPGVPTSM
B51: YAR018C 257-270 (peptide)
chain: PEVLMDQPYSPLSD
B52: YGR094W 179-192 (peptide)
chain: PEGVFSIPAPPPNV
B53: YLR357W 573-586 (peptide)
chain: PEPTMGSPDAPPLV

The target of one test is T1, Abp1 SH3 (ABP1_YEAST), P15891. Description: SPOT array.
As for B1, the normalised SPOT signal, Boehringer light units (BLU); mean over the file's lines of this peptide is 3450.
For the molecule B2, the normalised SPOT signal, Boehringer light units (BLU); mean over the file's lines of this peptide was 38.2.
On the same count and under the same terms, the figure for B3 is 97.
B4 had a normalised SPOT signal, Boehringer light units (BLU); mean over the file's lines of this peptide of 1120.
B5 gave a normalised SPOT signal, Boehringer light units (BLU); mean over the file's lines of this peptide of 285.
In turn, B6 registered a normalised SPOT signal, Boehringer light units (BLU); mean over the file's lines of this peptide of 75.1.
Consider B7, for which the normalised SPOT signal, Boehringer light units (BLU); mean over the file's lines of this peptide stood at 93.7.
B8: the normalised SPOT signal, Boehringer light units (BLU); mean over the file's lines of this peptide amounted to 117.
For the molecule B9, the normalised SPOT signal, Boehringer light units (BLU); mean over the file's lines of this peptide was found to be 6.9.
B10 gave a normalised SPOT signal, Boehringer light units (BLU); mean over the file's lines of this peptide of 387.

The next test has as its target T2, Myo5 SH3 (MYO5_YEAST), Q04439. Briefly: SPOT array.
B11 returned a normalised SPOT signal, Boehringer light units (BLU); mean over the file's lines of this peptide of 84.4.
B12: the normalised SPOT signal, Boehringer light units (BLU); mean over the file's lines of this peptide worked out at 153.
Consider B13, for which the normalised SPOT signal, Boehringer light units (BLU); mean over the file's lines of this peptide was found to be 6720.
Turning to B14, the normalised SPOT signal, Boehringer light units (BLU); mean over the file's lines of this peptide was found to be 98.9.
As to B15, the normalised SPOT signal, Boehringer light units (BLU); mean over the file's lines of this peptide turned out to be 95700.
B16 registered a normalised SPOT signal, Boehringer light units (BLU); mean over the file's lines of this peptide of 121.
In turn, B17 came in with a normalised SPOT signal, Boehringer light units (BLU); mean over the file's lines of this peptide of 411.
Molecule B18 showed a normalised SPOT signal, Boehringer light units (BLU); mean over the file's lines of this peptide of 126.
On to B19, for which the normalised SPOT signal, Boehringer light units (BLU); mean over the file's lines of this peptide is 154.
For the molecule B20, the normalised SPOT signal, Boehringer light units (BLU); mean over the file's lines of this peptide worked out at 2790.
Turning to B21, the normalised SPOT signal, Boehringer light units (BLU); mean over the file's lines of this peptide was 104.
Take B22: the normalised SPOT signal, Boehringer light units (BLU); mean over the file's lines of this peptide was 157.
Still for that read-out and setting: under B23 stands 240.
B24: the normalised SPOT signal, Boehringer light units (BLU); mean over the file's lines of this peptide was found to be 192.
B25 had a normalised SPOT signal, Boehringer light units (BLU); mean over the file's lines of this peptide of 248.
Same read-out and setting: the figure for B26 is 172; for B27 it is 248; for B28 it is 119.
B29 had a normalised SPOT signal, Boehringer light units (BLU); mean over the file's lines of this peptide of 38500.
Take B30: the normalised SPOT signal, Boehringer light units (BLU); mean over the file's lines of this peptide was determined as 4750.
Still for that read-out and setting: under B31 stands 130.
Consider B32, for which the normalised SPOT signal, Boehringer light units (BLU); mean over the file's lines of this peptide came out at 75.6.
With B33, the normalised SPOT signal, Boehringer light units (BLU); mean over the file's lines of this peptide came to 86.
B34 showed a normalised SPOT signal, Boehringer light units (BLU); mean over the file's lines of this peptide of 222.
In turn, B35 came in with a normalised SPOT signal, Boehringer light units (BLU); mean over the file's lines of this peptide of 53300.
Consider B36, for which the normalised SPOT signal, Boehringer light units (BLU); mean over the file's lines of this peptide turned out to be 93.7.
Molecule B37 returned a normalised SPOT signal, Boehringer light units (BLU); mean over the file's lines of this peptide of 91.3.
With B38, the normalised SPOT signal, Boehringer light units (BLU); mean over the file's lines of this peptide was 81.4.
Consider B39, for which the normalised SPOT signal, Boehringer light units (BLU); mean over the file's lines of this peptide worked out at 165.
Regarding B40, the normalised SPOT signal, Boehringer light units (BLU); mean over the file's lines of this peptide is 145.
The molecule B41 came in with a normalised SPOT signal, Boehringer light units (BLU); mean over the file's lines of this peptide of 139.
As to B42, the normalised SPOT signal, Boehringer light units (BLU); mean over the file's lines of this peptide was 217.
In turn, B43 gave a normalised SPOT signal, Boehringer light units (BLU); mean over the file's lines of this peptide of 1100.
The same measure, in the same setting: the figure for B44 is 46.1.
On the same count and under the same terms, the figure for B45 is 86.5; for B46 it is 47000.
For B47, the normalised SPOT signal, Boehringer light units (BLU); mean over the file's lines of this peptide was found to be 331.
For B48, the normalised SPOT signal, Boehringer light units (BLU); mean over the file's lines of this peptide is 155.
Still for that read-out and setting: the figure for B49 is 122; for B50 it is 190; for B51 it is 78.7.
B52 returned a normalised SPOT signal, Boehringer light units (BLU); mean over the file's lines of this peptide of 82.5.
In turn, B53 showed a normalised SPOT signal, Boehringer light units (BLU); mean over the file's lines of this peptide of 107.
